Binding result and relative signal intensity data for one molecule are collected here from patent publication US20250361326A1 (Hoffmann-La Roche, published 2025).

Assay [1] has as its target T1, VEGF (UniProt P15692-9 27-147).
T1 construct: also called VEGF121
T1 sequence (looked up): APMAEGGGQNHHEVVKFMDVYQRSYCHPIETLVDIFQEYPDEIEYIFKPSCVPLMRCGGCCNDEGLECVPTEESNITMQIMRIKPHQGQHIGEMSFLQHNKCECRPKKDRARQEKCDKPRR
Briefly: bridging ELISA, VEGF coated, digoxygenin-Cy5 detection; binder has dig arm, no VEGF arm. On the technique in general: ELISA stands for enzyme-linked immunosorbent assay.

Assay [2] has as its target T1, VEGF. As to the kind of experiment: bridging ELISA of exchange reaction mix, 1.3 µM input; VEGF coated, digoxygenin-Cy5 detection; highest value = 100%; binder has dig arm, no VEGF arm.
The target in assay [3] is T1, VEGF. As to the kind of experiment: bridging ELISA of exchange reaction mix, 1.3 µM input; VEGF coated, biocytinamid-Cy5 detection; highest value = 100%; binder has neither arm.

B1: anti-dig/anti-fluos bispecific antibody (exchange reaction: dig MHCFcRP-knob-E357K row x fluos MHCFcRP-hole-K370E column) (bispecific antibody, human IgG1, not shown: small tags and cut ends)
heavy 1: QVQLVESGGGLVKPGGSLRLSCAASGFTFSDYAMSWIRQAPGKGLEWVSSINIGATYIYYADSVKGRFTISRDNAKNSLYLQMNSLRAEDTAVYYCARPGSPYEYDKAYYSMAYWGQGTTVTVSSASTKGPSVFPLAPSSKSTSGGTAALGCLVKDYFPEPVTVSWNSGALTSGVHTFPAVLQSSGLYSLSSVVTVPSSSLGTQTYICNVNHKPSNTKVDKKVEPKSC
light 1: not shown
heavy 2: not shown
light 2: DIVMTQTPLSLSVTPGQPASISCKSSQSLVHSNGNTYLRWYLQKPGQSPKVLIYKVSNRVSGVPDRFSGSGSGTDFTLKISRVEAEDVGVYYCSQSTHVPWTFGQGTKLEIKRTVAAPSVFIFPPSDEQLKSGTASVVCLLNNFYPREAKVQWKVDNALQSGNSQESVTEQDSKDSTYSLSSTLTLSKADYEKHKVYACEVTHQGLSSPVTKSFNRGEC
notes: Product of the 2/3-IgG exchange reaction, tested as reaction mix; human IgG1 knob-into-hole format; also called dig/fluos bsAb
On to B1, for which the binding result with VEGF [1] is given as “no binding (tested: 1.3 µM input molecule concentration)”. For the same molecule, the relative signal intensity was found to be 6.7% with VEGF [2] and 9.1% in the assay with VEGF [3].
